Data: patent US7696168 (TUFTS MEDICAL CENTER, dated 2010)
The star is where a group is joined. Palmitoyl = CCCCCCCCCCCCCCCC(=O)*

Columns and labels:
Experiment in all cases: cell-based or functional assay
human PAR4 [1] = target: T1, human PAR4 (human, UniProt Q96RI0 48-385)
T1 sequence (looked up): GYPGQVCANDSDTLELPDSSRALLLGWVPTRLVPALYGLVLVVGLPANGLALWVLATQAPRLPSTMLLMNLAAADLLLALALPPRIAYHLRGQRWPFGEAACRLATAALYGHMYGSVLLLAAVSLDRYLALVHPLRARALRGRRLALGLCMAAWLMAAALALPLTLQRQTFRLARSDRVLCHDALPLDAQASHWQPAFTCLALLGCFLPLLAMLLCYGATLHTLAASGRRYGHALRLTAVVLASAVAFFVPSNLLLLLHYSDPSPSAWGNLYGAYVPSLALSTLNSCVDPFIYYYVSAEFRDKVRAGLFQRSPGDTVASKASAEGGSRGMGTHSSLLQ

murine PAR4 = target: T2, murine PAR4 (mouse, UniProt O88634 60-396)
T2 sequence (looked up): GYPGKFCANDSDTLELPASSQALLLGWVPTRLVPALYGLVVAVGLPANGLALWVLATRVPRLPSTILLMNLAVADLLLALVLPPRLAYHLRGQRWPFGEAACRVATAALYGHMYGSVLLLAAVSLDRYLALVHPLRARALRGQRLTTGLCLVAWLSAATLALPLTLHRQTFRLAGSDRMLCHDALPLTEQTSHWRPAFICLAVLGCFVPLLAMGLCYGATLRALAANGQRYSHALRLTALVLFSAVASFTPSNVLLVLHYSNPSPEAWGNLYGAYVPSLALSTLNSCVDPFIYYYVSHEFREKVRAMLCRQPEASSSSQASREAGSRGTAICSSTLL

human PAR4 [2] = target: T1, human PAR4; remark: listed apart in the source
human PAR1 [3] = target: T3, human PAR1 (human, UniProt P25116 42-425)
T3 sequence (looked up): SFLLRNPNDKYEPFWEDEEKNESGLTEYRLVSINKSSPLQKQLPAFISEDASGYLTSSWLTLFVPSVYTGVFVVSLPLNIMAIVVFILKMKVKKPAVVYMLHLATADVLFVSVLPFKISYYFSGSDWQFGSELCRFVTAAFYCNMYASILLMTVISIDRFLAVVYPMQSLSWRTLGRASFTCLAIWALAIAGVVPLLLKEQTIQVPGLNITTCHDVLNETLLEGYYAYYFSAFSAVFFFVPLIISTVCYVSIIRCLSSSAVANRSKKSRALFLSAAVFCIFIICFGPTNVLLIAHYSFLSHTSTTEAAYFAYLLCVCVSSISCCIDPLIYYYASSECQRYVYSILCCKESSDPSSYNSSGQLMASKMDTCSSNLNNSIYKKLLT

human PAR1 [4] = target: T3, human PAR1; remark: listed apart in the source

B1: P4pal-10 (Pal-SGRRYGHALR) (peptide)
peptide: Palmitoyl-SGRRYGHALR-NH2
SMILES: CCCCCCCCCCCCCCCC(=O)N[C@@H](CO)C(=O)NCC(=O)N[C@@H](CCCNC(=N)N)C(=O)N[C@@H](CCCNC(=N)N)C(=O)N[C@@H](Cc1ccc(O)cc1)C(=O)NCC(=O)N[C@@H](Cc1c[nH]cn1)C(=O)N[C@@H](C)C(=O)N[C@@H](CC(C)C)C(=O)N[C@@H](CCCNC(=N)N)C(N)=O
Human PAR4 [1]
  IC50, inhibition of platelet aggregation to AYPGKF: 500 to 1000 nM
Murine PAR4
  inhibition of the rate of murine platelet aggregation to 3 nM thrombin, 3 µM pepducin: 7 fold

B2: P4pal-15F (Pal-HTLAASGRRYGHALF) (peptide)
peptide: Palmitoyl-HTLAASGRRYGHALF-NH2
SMILES: CCCCCCCCCCCCCCCC(=O)N[C@@H](Cc1c[nH]cn1)C(=O)N[C@H](C(=O)N[C@@H](CC(C)C)C(=O)N[C@@H](C)C(=O)N[C@@H](C)C(=O)N[C@@H](CO)C(=O)NCC(=O)N[C@@H](CCCNC(=N)N)C(=O)N[C@@H](CCCNC(=N)N)C(=O)N[C@@H](Cc1ccc(O)cc1)C(=O)NCC(=O)N[C@@H](Cc1c[nH]cn1)C(=O)N[C@@H](C)C(=O)N[C@@H](CC(C)C)C(=O)N[C@@H](Cc1ccccc1)C(N)=O)[C@@H](C)O
Human PAR4 [2]
  Antagonist IC50 (InsP formation, against 10 nM thrombin): > 2000 nM

B3: P1pal-19Q (Pal-RCLSSSAVANQSQQSQALF) (peptide)
peptide: Palmitoyl-RCLSSSAVANQSQQSQALF-NH2
SMILES: CCCCCCCCCCCCCCCC(=O)N[C@@H](CCCNC(=N)N)C(=O)N[C@@H](CS)C(=O)N[C@@H](CC(C)C)C(=O)N[C@@H](CO)C(=O)N[C@@H](CO)C(=O)N[C@@H](CO)C(=O)N[C@@H](C)C(=O)N[C@H](C(=O)N[C@@H](C)C(=O)N[C@@H](CC(N)=O)C(=O)N[C@@H](CCC(N)=O)C(=O)N[C@@H](CO)C(=O)N[C@@H](CCC(N)=O)C(=O)N[C@@H](CCC(N)=O)C(=O)N[C@@H](CO)C(=O)N[C@@H](CCC(N)=O)C(=O)N[C@@H](C)C(=O)N[C@@H](CC(C)C)C(=O)N[C@@H](Cc1ccccc1)C(N)=O)C(C)C
Human PAR1 [3]
  Agonist EC50 (activating phase, InsP formation): 650 nM
  Agonist Efficacy (% of full response to extracellular agonist): 46%
  Agonist IC50 (inhibitory phase, InsP formation): 30000 nM
Human PAR1 [4]
  loss in efficacy, platelet aggregation or InsP in PAR1-Rat1 cells: 2 fold

B4: P4pal-15 (Pal-HTLAASGRRYGHALR) (peptide)
peptide: Palmitoyl-HTLAASGRRYGHALR-NH2
SMILES: CCCCCCCCCCCCCCCC(=O)N[C@@H](Cc1c[nH]cn1)C(=O)N[C@H](C(=O)N[C@@H](CC(C)C)C(=O)N[C@@H](C)C(=O)N[C@@H](C)C(=O)N[C@@H](CO)C(=O)NCC(=O)N[C@@H](CCCNC(=N)N)C(=O)N[C@@H](CCCNC(=N)N)C(=O)N[C@@H](Cc1ccc(O)cc1)C(=O)NCC(=O)N[C@@H](Cc1c[nH]cn1)C(=O)N[C@@H](C)C(=O)N[C@@H](CC(C)C)C(=O)N[C@@H](CCCNC(=N)N)C(N)=O)[C@@H](C)O
Human PAR4 [2]
  Antagonist IC50 (InsP formation, against 10 nM thrombin): 3000 nM
Human PAR4 [1]
  IC50, inhibition of platelet aggregation to 200 micromolar AYPGKF: 600 nM
